Assay results published in PMC6555819, “Comprehensive study of nuclear receptor DNA binding provides a revised framework for understanding receptor specificity”.
Where a chain is given by its changes, count along the chain named.

B1: NRC3_random_hg19_375_o1 (dsDNA)
DNA 1: GCCAGAAGAGGAGAAGACACATAAGAAGAGGAAGTCGCGATTGACAGCGTAGAATGAAGG
DNA 2: CCTTCATTCTACGCTGTCAATCGCGACTTCCTCTTCTTATGTGTCTTCTCCTCTTCTGGC
B2: NRC3_wobSeed53_DR2_C8A_o1 (dsDNA)
DNA 1: GCCCTTAAGGGTCACGAGGTTATAGCACGACGAGCGGCGATTGACAGCGTAGAATGAAGG
DNA 2: CCTTCATTCTACGCTGTCAATCGCCGCTCGTCGTGCTATAACCTCGTGACCCTTAAGGGC
B3: NRC3_wobSeed109_DR4_T15C_o1 (dsDNA)
DNA 1: GCCGTCCAAGGTCACAGGAGGTCAGTGAAGACAGATGCGATTGACAGCGTAGAATGAAGG
DNA 2: CCTTCATTCTACGCTGTCAATCGCATCTGTCTTCACTGACCTCCTGTGACCTTGGACGGC
B4: NRC3_wobSeed63_DR2_T8G_o1 (dsDNA)
DNA 1: GCCGAACGAGGTCACCAGGACAGTGAAGAGGTTGGAGCGATTGACAGCGTAGAATGAAGG
DNA 2: CCTTCATTCTACGCTGTCAATCGCTCCAACCTCTTCACTGTCCTGGTGACCTCGTTCGGC
B5: NRC3_random_hg19_443_o1 (dsDNA)
DNA 1: GCTAGTACTTGGTCCATAGCACTACTACTCACTTTGGCGATTGACAGCGTAGAATGAAGG
DNA 2: CCTTCATTCTACGCTGTCAATCGCCAAAGTGAGTAGTAGTGCTATGGACCAAGTACTAGC
B6: NRC3_random_hg19_45_o1 (dsDNA)
DNA 1: GCAAACACAAAGTTTGGGCTGCCTTCTCTAGAGATTGCGATTGACAGCGTAGAATGAAGG
DNA 2: CCTTCATTCTACGCTGTCAATCGCAATCTCTAGAGAAGGCAGCCCAAACTTTGTGTTTGC
B7: NRC3_random_hg19_63_o1 (dsDNA)
DNA 1: GCTTTCAAGGCAGTAAGAGTTTGCTGTGCATCAGCTGCGATTGACAGCGTAGAATGAAGG
DNA 2: CCTTCATTCTACGCTGTCAATCGCAGCTGATGCACAGCAAACTCTTACTGCCTTGAAAGC
B8: NRC3_random_hg19_114_o1 (dsDNA)
DNA 1: GCCAAGGCAGCCAGAACTGATGATTGCACTGTGTGGGCGATTGACAGCGTAGAATGAAGG
DNA 2: CCTTCATTCTACGCTGTCAATCGCCCACACAGTGCAATCATCAGTTCTGGCTGCCTTGGC
B9: NRC3_wobSeed73_DR3_G20T_o1 (dsDNA)
DNA 1: GCCAAACTAGGTCACAGAGTTCAAAGTCCGTGCGTAGCGATTGACAGCGTAGAATGAAGG
DNA 2: CCTTCATTCTACGCTGTCAATCGCTACGCACGGACTTTGAACTCTGTGACCTAGTTTGGC
B10: NRC3_wobSeed77_DR3_G20T_o1 (dsDNA)
DNA 1: GCACTTACGGGTCAACGAGTTTATAGCACGCGTATAGCGATTGACAGCGTAGAATGAAGG
DNA 2: CCTTCATTCTACGCTGTCAATCGCTATACGCGTGCTATAAACTCGTTGACCCGTAAGTGC
B11: NRC3_wobSeed82_DR3_G22C_o1 (dsDNA)
DNA 1: GCATCGAAAGGTCGACGAGGTCAGTATACACCGTTTGCGATTGACAGCGTAGAATGAAGG
DNA 2: CCTTCATTCTACGCTGTCAATCGCAAACGGTGTATACTGACCTCGTCGACCTTTCGATGC
B12: NRC3_wobSeed74_DR3_T9G_o1 (dsDNA)
DNA 1: GCTCTAGTGGGTCACGGAGGTCACACACGACGGGTAGCGATTGACAGCGTAGAATGAAGG
DNA 2: CCTTCATTCTACGCTGTCAATCGCTACCCGTCGTGTGTGACCTCCGTGACCCACTAGAGC
B13: NRC3_wobSeed95_DR3_G12T_o1 (dsDNA)
DNA 1: GCAGAACGAGGTCAATGAGTTGATAGCACGGGTGGCGCGATTGACAGCGTAGAATGAAGG
DNA 2: CCTTCATTCTACGCTGTCAATCGCGCCACCCGTGCTATCAACTCATTGACCTCGTTCTGC
B14: NRC3_wobSeed81_DR3_A13C_o1 (dsDNA)
DNA 1: GCATCTCTAGGTCACCAAGTTCAGTGAATGCCGAACGCGATTGACAGCGTAGAATGAAGG
DNA 2: CCTTCATTCTACGCTGTCAATCGCGTTCGGCATTCACTGAACTTGGTGACCTAGAGATGC
B15: NRC3_wobSeed28_DR1_T26G_o1 (dsDNA)
DNA 1: GCCCTACTGGGCCAAAGGTCATTGAGTCCAATGCTCGCGATTGACAGCGTAGAATGAAGG
DNA 2: CCTTCATTCTACGCTGTCAATCGCGAGCATTGGACTCAATGACCTTTGGCCCAGTAGGGC
B16: NRC3_wobSeed94_DR3_G23A_o1 (dsDNA)
DNA 1: GCCTACCAAGGTGAACAAGGTCATTGATTACTATTCGCGATTGACAGCGTAGAATGAAGG
DNA 2: CCTTCATTCTACGCTGTCAATCGCGAATAGTAATCAATGACCTTGTTCACCTTGGTAGGC
B17: NRC3_wobSeed113_DR4_A14C_o1 (dsDNA)
DNA 1: GCATATGTAGGTTCGCTGGGGTCATTCAGACTAGGCGCGATTGACAGCGTAGAATGAAGG
DNA 2: CCTTCATTCTACGCTGTCAATCGCGCCTAGTCTGAATGACCCCAGCGAACCTACATATGC
B18: NRC3_wobSeed76_DR3_C12T_o1 (dsDNA)
DNA 1: GCCCTACTGGGTCAAAAAGGTCATTGATGCCGATAAGCGATTGACAGCGTAGAATGAAGG
DNA 2: CCTTCATTCTACGCTGTCAATCGCTTATCGGCATCAATGACCTTTTTGACCCAGTAGGGC
B19: NRC3_wobSeed94_DR3_G13T_o1 (dsDNA)
DNA 1: B16 DNA 1 with G13T, A23G
DNA 2: B16 DNA 2 with T38C, C48A
B20: NRC3_wobSeed65_DR2_C25G_o1 (dsDNA)
DNA 1: GCATATGTAGGTTATCGGGTCATTGAGTTTGCGCATGCGATTGACAGCGTAGAATGAAGG
DNA 2: CCTTCATTCTACGCTGTCAATCGCATGCGCAAACTCAATGACCCGATAACCTACATATGC
B21: NRC3_wobSeed92_DR3_A20T_o1 (dsDNA)
DNA 1: GCAGAATGAGGTTATTAAGTTCAGGGAATTGCGGTCGCGATTGACAGCGTAGAATGAAGG
DNA 2: CCTTCATTCTACGCTGTCAATCGCGACCGCAATTCCCTGAACTTAATAACCTCATTCTGC
B22: NRC3_wobSeed92_DR3_A20G_o1 (dsDNA)
DNA 1: B21 DNA 1 with T20G
DNA 2: B21 DNA 2 with A41C
B23: NRC3_wobSeed13_DR0_A8G_o1 (dsDNA)
DNA 1: GCCGTCCGAGGTCAAGGTCAGTGAAAGAGACTCGAAGCGATTGACAGCGTAGAATGAAGG
DNA 2: CCTTCATTCTACGCTGTCAATCGCTTCGAGTCTCTTTCACTGACCTTGACCTCGGACGGC
B24: NRC3_wobSeed97_DR4_T8C_o1 (dsDNA)
DNA 1: GCCAAACCAGGTCACGAAAGGTCAAAGTCGAATGACGCGATTGACAGCGTAGAATGAAGG
DNA 2: CCTTCATTCTACGCTGTCAATCGCGTCATTCGACTTTGACCTTTCGTGACCTGGTTTGGC
B25: NRC3_wobSeed27_DR1_G22C_o1 (dsDNA)
DNA 1: GCACTCGGAGGACAAAGGTCACAGCTACGCCAGTGAGCGATTGACAGCGTAGAATGAAGG
DNA 2: CCTTCATTCTACGCTGTCAATCGCTCACTGGCGTAGCTGTGACCTTTGTCCTCCGAGTGC
B26: NRC3_random_hg19_226_o1 (dsDNA)
DNA 1: GCCATCCCATTTCTCTTCCCAAGGGATTTGAAAGAGGCGATTGACAGCGTAGAATGAAGG
DNA 2: CCTTCATTCTACGCTGTCAATCGCCTCTTTCAAATCCCTTGGGAAGAGAAATGGGATGGC
B27: NRC3_random_hg19_248_o1 (dsDNA)
DNA 1: GCGTGTTCTACTGTACTGCAGCTGAGCCGACACTCAGCGATTGACAGCGTAGAATGAAGG
DNA 2: CCTTCATTCTACGCTGTCAATCGCTGAGTGTCGGCTCAGCTGCAGTACAGTAGAACACGC

How the values were obtained:
RXRa = RXRa (Homo sapiens, UniProt P19793); test: no ligand; PBM; 180 nM; PBS pH 7.4, 2% milk, 0.02% Triton X-100, 1 mM DTT, BSA, 0.4 mg/ml salmon testes DNA; conditions: tags: His cleaved; chain copies: 2; label: surface-attached array probe
FXR:RXRa = FXR:RXRa (Homo sapiens, UniProt Q96RI1;P19793 full;full); test: no ligand; PBM; 270 nM : 90 nM RXRa; PBS pH 7.4, 2% milk, 0.02% Triton X-100, 1 mM DTT, BSA, 0.4 mg/ml salmon testes DNA; conditions: tags: His kept;His cleaved; copies: 1;1; label: surface-attached array probe
Summary of the method: (§1)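 For binding z-scores, the reference was random background probes on custom Agilent 4×180K protein-binding microarrays. These arrays were incubated 1 h with ligand-free nuclear receptor dimers in PBS pH 7.4, 2% milk, 0.02% Triton X-100, 1 mM DTT, 0.2 mg/mL BSA and 0.4 mg/ml salmon testes DNA. Fluorescence was scanned after antibody detection of each partner (one per run) and regression-normalized.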

PPARa:RXRa = PPARa:RXRa (Homo sapiens, UniProt Q07869;P19793 full;full); test: as above; conditions: tags: GST kept;His cleaved; copies: 1;1; label: surface-attached array probe
Summary of the method: as §1

RARg:RXRa = RARg:RXRa (Homo sapiens, UniProt P13631;P19793 full;full); test: as above; conditions: tags: His kept;His cleaved; copies: 1;1; label: surface-attached array probe
Summary of the method: as §1

RARb:RXRa = RARb:RXRa (Homo sapiens, UniProt P10826;P19793 full;full); test: as above; conditions: tags: His kept;His cleaved; copies: 1;1; label: surface-attached array probe
Summary of the method: as §1

VDR:RXRa = VDR:RXRa (Homo sapiens, UniProt P11473;P19793 full;full); test: as above; conditions: tags: His kept;His cleaved; copies: 1;1; label: surface-attached array probe
Summary of the method: as §1

Chain of VDR:RXRa (P11473 whole entry, chain 1 of 2): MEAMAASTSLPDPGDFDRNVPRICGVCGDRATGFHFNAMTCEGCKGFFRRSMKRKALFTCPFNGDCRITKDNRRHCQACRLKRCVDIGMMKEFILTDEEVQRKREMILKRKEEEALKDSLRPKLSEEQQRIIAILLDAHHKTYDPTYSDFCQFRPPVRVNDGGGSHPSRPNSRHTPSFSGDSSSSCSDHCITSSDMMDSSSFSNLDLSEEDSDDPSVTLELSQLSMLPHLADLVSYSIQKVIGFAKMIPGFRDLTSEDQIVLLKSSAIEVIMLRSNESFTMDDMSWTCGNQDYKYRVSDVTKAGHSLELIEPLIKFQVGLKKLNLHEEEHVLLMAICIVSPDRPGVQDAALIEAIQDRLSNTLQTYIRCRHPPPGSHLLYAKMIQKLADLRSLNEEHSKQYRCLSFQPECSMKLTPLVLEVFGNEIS
Chain of VDR:RXRa (P19793 whole entry, chain 2 of 2): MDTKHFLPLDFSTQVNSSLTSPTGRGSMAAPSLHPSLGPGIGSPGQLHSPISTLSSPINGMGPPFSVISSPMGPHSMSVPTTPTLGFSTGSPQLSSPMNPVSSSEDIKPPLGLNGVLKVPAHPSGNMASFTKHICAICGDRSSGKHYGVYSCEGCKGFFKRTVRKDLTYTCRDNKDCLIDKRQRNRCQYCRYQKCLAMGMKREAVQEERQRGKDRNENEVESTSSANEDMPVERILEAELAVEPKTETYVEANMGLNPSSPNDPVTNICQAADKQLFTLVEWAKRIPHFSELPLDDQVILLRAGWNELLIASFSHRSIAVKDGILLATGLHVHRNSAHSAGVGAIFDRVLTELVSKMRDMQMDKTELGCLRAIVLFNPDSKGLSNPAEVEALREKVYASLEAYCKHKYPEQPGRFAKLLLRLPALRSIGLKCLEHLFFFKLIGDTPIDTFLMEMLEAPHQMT
Chain of RARb:RXRa (P10826 whole entry, chain 1 of 2): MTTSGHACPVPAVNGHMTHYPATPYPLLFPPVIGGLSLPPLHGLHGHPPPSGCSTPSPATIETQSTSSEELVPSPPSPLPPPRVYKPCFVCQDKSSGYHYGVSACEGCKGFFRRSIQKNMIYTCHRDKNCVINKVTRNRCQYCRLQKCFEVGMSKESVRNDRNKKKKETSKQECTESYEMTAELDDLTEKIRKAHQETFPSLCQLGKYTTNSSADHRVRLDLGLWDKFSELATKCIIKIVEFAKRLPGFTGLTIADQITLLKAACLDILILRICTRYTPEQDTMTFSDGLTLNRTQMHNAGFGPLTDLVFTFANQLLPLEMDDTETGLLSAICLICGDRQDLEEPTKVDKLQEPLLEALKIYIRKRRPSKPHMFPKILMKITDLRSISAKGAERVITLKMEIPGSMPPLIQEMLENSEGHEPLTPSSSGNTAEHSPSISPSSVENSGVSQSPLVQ
Chain of RARb:RXRa (P19793 whole entry, chain 2 of 2): as the sequence (P19793 whole entry, chain 2 of 2) above
Chain of FXR:RXRa (Q96RI1 whole entry, chain 1 of 2): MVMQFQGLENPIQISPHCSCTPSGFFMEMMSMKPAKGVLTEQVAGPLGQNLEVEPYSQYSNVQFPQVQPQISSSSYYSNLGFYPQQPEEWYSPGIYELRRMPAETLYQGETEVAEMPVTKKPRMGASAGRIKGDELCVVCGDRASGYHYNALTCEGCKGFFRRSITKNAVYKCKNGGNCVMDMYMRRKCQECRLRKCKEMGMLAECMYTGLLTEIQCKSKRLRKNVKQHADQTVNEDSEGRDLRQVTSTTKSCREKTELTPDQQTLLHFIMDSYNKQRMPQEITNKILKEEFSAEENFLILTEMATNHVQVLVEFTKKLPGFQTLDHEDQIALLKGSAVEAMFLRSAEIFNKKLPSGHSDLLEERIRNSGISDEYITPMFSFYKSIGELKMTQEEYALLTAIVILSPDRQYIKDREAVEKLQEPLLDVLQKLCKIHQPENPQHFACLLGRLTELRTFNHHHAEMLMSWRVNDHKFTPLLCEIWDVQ
Chain of FXR:RXRa (P19793 whole entry, chain 2 of 2): as the sequence (P19793 whole entry, chain 2 of 2) above
Chain of PPARa:RXRa (Q07869 whole entry, chain 1 of 2): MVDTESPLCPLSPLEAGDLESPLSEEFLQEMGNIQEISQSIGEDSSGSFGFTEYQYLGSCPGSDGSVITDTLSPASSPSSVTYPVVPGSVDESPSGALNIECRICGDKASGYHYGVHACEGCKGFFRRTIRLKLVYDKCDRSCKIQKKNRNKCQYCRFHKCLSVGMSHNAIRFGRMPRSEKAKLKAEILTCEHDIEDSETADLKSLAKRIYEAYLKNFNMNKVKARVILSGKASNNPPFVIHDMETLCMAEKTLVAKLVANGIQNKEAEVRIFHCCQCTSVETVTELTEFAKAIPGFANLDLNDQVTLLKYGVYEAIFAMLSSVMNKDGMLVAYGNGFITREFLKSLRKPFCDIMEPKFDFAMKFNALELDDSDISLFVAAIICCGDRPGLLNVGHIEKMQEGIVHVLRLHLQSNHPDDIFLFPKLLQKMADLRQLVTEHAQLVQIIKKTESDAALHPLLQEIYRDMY
Chain of PPARa:RXRa (P19793 whole entry, chain 2 of 2): as the sequence (P19793 whole entry, chain 2 of 2) above
Chain of RARg:RXRa (P13631 whole entry, chain 1 of 2): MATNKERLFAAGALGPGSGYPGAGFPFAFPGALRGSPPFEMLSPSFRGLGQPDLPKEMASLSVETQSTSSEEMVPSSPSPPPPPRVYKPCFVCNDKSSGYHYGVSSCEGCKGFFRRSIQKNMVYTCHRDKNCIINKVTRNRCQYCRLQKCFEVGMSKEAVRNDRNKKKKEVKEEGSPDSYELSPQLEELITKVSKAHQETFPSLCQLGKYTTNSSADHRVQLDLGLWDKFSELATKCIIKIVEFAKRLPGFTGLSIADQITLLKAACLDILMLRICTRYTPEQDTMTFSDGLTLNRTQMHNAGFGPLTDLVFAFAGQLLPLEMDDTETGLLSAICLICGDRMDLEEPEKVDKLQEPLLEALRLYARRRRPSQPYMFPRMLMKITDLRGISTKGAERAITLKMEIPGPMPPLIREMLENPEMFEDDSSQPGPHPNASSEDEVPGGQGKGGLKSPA
Chain of RARg:RXRa (P19793 whole entry, chain 2 of 2): as the sequence (P19793 whole entry, chain 2 of 2) above
Chain of RXRa (P19793 whole entry): as the sequence (P19793 whole entry, chain 2 of 2) above

Binder | binding signal (RXRa) | binding signal (VDR:RXRa) | further results
B1 | 0.13 PBM z-score against 500 random probes |  | binding signal (FXR:RXRa): 0.5 PBM z-score against 500 random probes
B2 | 8.38 PBM z-score against 500 random probes |  | binding signal (FXR:RXRa): 8.42 PBM z-score against 500 random probes; binding signal (PPARa:RXRa): 7.03 PBM z-score against 500 random probes; binding signal (RARg:RXRa): 7.41 PBM z-score against 500 random probes; binding signal (RARb:RXRa): 6 PBM z-score against 500 random probes
B3 | 7.9 PBM z-score against 500 random probes |  | binding signal (RARg:RXRa): 7.39 PBM z-score against 500 random probes; binding signal (RARb:RXRa): 5.7 PBM z-score against 500 random probes
B4 | 7.78 PBM z-score against 500 random probes |  | binding signal (FXR:RXRa): 7.97 PBM z-score against 500 random probes; binding signal (PPARa:RXRa): 6.82 PBM z-score against 500 random probes; binding signal (RARb:RXRa): 5.63 PBM z-score against 500 random probes
B5 | 0.04 PBM z-score against 500 random probes |  | binding signal (PPARa:RXRa): -0.32 PBM z-score against 500 random probes; binding signal (RARb:RXRa): -0.05 PBM z-score against 500 random probes
B6 | -0.51 PBM z-score against 500 random probes |  | binding signal (RARb:RXRa): -0.19 PBM z-score against 500 random probes
B7 | -1.05 PBM z-score against 500 random probes |  | binding signal (RARb:RXRa): -0.61 PBM z-score against 500 random probes
B8 | -0.24 PBM z-score against 500 random probes |  | binding signal (RARb:RXRa): -1.11 PBM z-score against 500 random probes
B9 |  | 8.45 PBM z-score against 500 random probes | 
B10 |  | 8.27 PBM z-score against 500 random probes | 
B11 |  | 7.66 PBM z-score against 500 random probes | 
B12 |  | 7.63 PBM z-score against 500 random probes | 
B13 |  | 7.63 PBM z-score against 500 random probes | 
B14 |  | 7.59 PBM z-score against 500 random probes | 
B15 |  | 7.34 PBM z-score against 500 random probes | 
B16 |  | 7.03 PBM z-score against 500 random probes | 
B17 |  | 7.03 PBM z-score against 500 random probes | 
B18 |  | 6.93 PBM z-score against 500 random probes | 
B19 |  | 6.93 PBM z-score against 500 random probes | 
B20 |  | 6.9 PBM z-score against 500 random probes | 
B21 |  | 6.9 PBM z-score against 500 random probes | 
B22 |  | 6.76 PBM z-score against 500 random probes | 
B23 | 8 PBM z-score against 500 random probes |  | binding signal (FXR:RXRa): 8.4 PBM z-score against 500 random probes; binding signal (PPARa:RXRa): 6.49 PBM z-score against 500 random probes; binding signal (RARg:RXRa): 7.45 PBM z-score against 500 random probes
B24 | 9.26 PBM z-score against 500 random probes |  | binding signal (RARg:RXRa): 8.22 PBM z-score against 500 random probes
B25 | 8.07 PBM z-score against 500 random probes |  | binding signal (RARg:RXRa): 7.47 PBM z-score against 500 random probes
B26 | -0.08 PBM z-score against 500 random probes |  | binding signal (RARg:RXRa): -0.16 PBM z-score against 500 random probes
B27 | -0.43 PBM z-score against 500 random probes |  | binding signal (RARg:RXRa): -0.34 PBM z-score against 500 random probes
